Data published in patent publication US20110311515A1.

B1: building block of RSV407 (monovalent Nanobody) (VHH)
VHH: EVQLVESGGGLVQAGGSLSISCAASGGSLSNYVLGWFRQAPGKEREFVAAINWRGDITIGPPNVEGRFTISRDNAKNTGYLQMNSLAPDDTAVYYCGAGTPLNPGAYIYDWSYDYWGRGTQVTVSS
B2: RSV407 (VHH)
chain: EVQLVESGGGLVQAGGSLSISCAASGGSLSNYVLGWFRQAPGKEREFVAAINWRGDITIGPPNVEGRFTISRDNAKNTGYLQMNSLAPDDTAVYYCGAGTPLNPGAYIYDWSYDYWGRGTQVTVSSGGGGSGGGGSGGGGSEVQLVESGGGLVQAGGSLSISCAASGGSLSNYVLGWFRQAPGKEREFVAAINWRGDITIGPPNVEGRFTISRDNAKNTGYLQMNSLAPDDTAVYYCGAGTPLNPGAYIYDWSYDYWGRGTQVTVSSGGGGSGGGGSGGGGSEVQLVESGGGLVQAGGSLSISCAASGGSLSNYVLGWFRQAPGKEREFVAAINWRGDITIGPPNVEGRFTISRDNAKNTGYLQMNSLAPDDTAVYYCGAGTPLNPGAYIYDWSYDYWGRGTQVTVSSAAAEQKLISEEDLNGAAHHHHHH

Substrate: F protein of RSV (hRSV strain Long LM-2) (hRSV strain Long) (UniProt P12568)
Assay: cell-based or functional assay

F protein of RSV (hRSV strain Long LM-2) (hRSV strain Long), sequence (P12568 26-574): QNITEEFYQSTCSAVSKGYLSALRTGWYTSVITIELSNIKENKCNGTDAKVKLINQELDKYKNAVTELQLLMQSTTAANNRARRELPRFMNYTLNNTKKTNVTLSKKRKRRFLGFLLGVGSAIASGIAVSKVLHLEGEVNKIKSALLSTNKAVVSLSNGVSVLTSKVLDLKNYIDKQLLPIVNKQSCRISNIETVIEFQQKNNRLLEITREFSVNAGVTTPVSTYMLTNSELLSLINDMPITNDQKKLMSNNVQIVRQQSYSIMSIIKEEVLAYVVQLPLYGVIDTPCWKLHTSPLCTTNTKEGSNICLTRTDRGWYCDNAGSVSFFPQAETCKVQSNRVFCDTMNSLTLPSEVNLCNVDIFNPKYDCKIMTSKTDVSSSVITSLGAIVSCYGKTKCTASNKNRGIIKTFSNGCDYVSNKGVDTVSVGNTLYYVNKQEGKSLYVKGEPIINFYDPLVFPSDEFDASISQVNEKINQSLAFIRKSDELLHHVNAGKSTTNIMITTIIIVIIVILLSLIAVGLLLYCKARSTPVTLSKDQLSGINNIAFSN

Binder | IC50, neutralization of RSV infection, Long strain
B1 | 50 to 100 nM
B2 | 0.1 nM
